The values below come from patent US20090191579A1 (PAIN THERAPEUTICS, published 2009).

The assay has as its target MAP1B, endogenous, rat striatum (rat, UniProt P15205 2-2461, limits assumed). Briefly: co-immunoprecipitation (anti-Gα, then anti-MOR) from rat striatum, Western blot.

Sequence of MAP1B, endogenous, rat striatum (P15205 2-2461 limits assumed): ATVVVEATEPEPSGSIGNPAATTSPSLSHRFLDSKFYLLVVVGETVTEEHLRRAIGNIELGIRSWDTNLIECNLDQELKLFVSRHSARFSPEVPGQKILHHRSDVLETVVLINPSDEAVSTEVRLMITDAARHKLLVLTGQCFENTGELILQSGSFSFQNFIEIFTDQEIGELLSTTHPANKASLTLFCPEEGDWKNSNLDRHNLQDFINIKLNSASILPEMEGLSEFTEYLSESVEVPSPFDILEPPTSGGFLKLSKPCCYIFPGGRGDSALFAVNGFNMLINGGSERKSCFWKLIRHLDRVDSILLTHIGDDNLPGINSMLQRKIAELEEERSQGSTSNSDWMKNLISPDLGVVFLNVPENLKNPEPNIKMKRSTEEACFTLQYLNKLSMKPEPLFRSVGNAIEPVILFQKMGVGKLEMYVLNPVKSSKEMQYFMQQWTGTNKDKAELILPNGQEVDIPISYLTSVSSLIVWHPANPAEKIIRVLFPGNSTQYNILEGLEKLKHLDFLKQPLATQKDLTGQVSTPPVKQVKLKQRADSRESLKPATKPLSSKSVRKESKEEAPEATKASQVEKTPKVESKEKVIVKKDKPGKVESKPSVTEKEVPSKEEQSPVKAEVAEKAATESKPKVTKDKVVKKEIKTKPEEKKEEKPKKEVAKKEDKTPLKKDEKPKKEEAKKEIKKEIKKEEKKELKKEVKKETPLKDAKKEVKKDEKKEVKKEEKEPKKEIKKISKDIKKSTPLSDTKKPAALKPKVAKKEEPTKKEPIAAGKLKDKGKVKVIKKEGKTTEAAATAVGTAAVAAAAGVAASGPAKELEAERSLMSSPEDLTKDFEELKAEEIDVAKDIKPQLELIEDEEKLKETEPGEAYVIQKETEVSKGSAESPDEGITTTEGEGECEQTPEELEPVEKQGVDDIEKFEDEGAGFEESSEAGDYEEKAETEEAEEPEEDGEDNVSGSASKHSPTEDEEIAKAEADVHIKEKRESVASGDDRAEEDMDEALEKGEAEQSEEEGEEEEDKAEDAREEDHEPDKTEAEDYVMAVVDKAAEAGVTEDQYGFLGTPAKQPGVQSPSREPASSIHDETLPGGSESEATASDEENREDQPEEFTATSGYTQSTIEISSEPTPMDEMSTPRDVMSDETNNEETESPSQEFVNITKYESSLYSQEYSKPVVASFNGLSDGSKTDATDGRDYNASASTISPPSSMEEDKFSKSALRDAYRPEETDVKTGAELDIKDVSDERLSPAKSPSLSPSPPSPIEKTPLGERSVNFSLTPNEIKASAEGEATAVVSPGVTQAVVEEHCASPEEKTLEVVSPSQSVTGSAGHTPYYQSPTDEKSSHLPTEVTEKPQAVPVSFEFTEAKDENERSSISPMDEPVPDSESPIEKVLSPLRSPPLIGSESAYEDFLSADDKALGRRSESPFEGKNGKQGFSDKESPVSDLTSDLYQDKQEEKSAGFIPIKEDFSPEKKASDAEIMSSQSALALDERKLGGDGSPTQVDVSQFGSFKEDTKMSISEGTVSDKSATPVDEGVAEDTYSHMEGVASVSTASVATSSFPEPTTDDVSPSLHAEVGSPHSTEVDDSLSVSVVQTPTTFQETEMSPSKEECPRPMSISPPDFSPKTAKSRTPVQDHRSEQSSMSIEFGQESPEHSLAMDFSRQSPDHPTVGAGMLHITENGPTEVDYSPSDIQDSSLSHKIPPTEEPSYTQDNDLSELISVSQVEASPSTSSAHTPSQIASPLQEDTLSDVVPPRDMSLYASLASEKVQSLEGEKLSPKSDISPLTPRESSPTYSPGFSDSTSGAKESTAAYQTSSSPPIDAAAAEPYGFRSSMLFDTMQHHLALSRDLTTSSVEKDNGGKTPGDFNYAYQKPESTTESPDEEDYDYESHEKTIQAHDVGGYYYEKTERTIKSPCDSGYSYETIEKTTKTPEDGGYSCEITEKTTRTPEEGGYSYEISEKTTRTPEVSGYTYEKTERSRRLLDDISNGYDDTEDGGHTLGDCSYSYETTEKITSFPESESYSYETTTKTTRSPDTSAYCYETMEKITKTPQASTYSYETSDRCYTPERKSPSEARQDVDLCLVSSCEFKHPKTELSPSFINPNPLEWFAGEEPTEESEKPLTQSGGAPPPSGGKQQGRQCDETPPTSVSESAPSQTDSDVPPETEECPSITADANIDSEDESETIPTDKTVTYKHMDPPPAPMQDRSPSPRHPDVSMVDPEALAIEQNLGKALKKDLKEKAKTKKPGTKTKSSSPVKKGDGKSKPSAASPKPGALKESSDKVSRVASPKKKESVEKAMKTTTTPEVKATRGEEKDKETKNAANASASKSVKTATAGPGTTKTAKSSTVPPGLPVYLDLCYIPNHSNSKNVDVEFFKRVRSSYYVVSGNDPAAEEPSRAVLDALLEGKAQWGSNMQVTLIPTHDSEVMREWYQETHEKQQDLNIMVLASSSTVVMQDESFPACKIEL

B1: mu opioid receptor (MOR), endogenous, rat striatum (receptor, UniProt P33535 1-398, looked up)
chain: MDSSTGPGNTSDCSDPLAQASCSPAPGSWLNLSHVDGNQSDPCGLNRTGLGGNDSLCPQTGSPSMVTAITIMALYSIVCVVGLFGNFLVMYVIVRYTKMKTATNIYIFNLALADALATSTLPFQSVNYLMGTWPFGTILCKIVISIDYYNMFTSIFTLCTMSVDRYIAVCHPVKALDFRTPRNAKIVNVCNWILSSAIGLPVMFMATTKYRQGSIDCTLTFSHPTWYWENLLKICVFIFAFIMPVLIITVCYGLMILRLKSVRMLSGSKEKDRNLRRITRMVLVVVAVFIVCWTPIHIYVIIKALITIPETTFQTVSWHFCIALGYTNSCLNPVLYAFLDENFKRCFREFCIPTSSTIEQQNSTRVRQNTREHPSTANTVDRTNHQLENLEAETAPLP
notes: Endogenous receptor immunoprecipitated with anti-MOR or detected with anti-MOR in anti-Gα immunoprecipitates; also called µ opioid receptor
On to B1, for which the binding result was “no binding”.
